Source: the supplement of paper PMC9732359
± gives the uncertainty stated by the source.

Experiment: protein stability index of a GFP-peptide fusion (yeast GPS) (PSI 1-4); higher = more stable; sorted into four equal gates, so the index is relative within each strain
Method in brief: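 For each peptide, the protein stability index sums the read frequency in every gate after multiplying it by the gate number. Read frequencies came from plasmids that were PCR-amplified from each gate and Illumina-sequenced, with reads assigned to strains by barcodes. The gates were four equal bins of GFP/Cherry fluorescence ratio applied to mid-log yeast in leucine-free medium carrying a pooled library of tiled 17-residue yeast protein peptides fused downstream of GFP on a Cherry-expressing plasmid.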

## FPKIDSLAQNDCNSALD [RPN5]
doa10∆
  protein stability index: 2.52 ± 0.062
pdr5∆
  protein stability index: 2.64 ± 0.049
san1∆
  protein stability index: 3.03 ± 0.05
ubr1∆
  protein stability index: 2.93 ± 0.045

## SKPAFSFGAKSDEKKDG [YJL041W/NSP1]
doa10∆
  protein stability index: 3.25 ± 0.17
pdr5∆
  protein stability index: 2.97 ± 0.13
san1∆
  protein stability index: 3.25 ± 0.12

## LTSNISSLVRSCGEEEF [REC8]
doa10∆
  protein stability index: 3.33 ± 0.17
pdr5∆
  protein stability index: 2.78 ± 0.13
san1∆
  protein stability index: 2.21 ± 0.13
ubr1∆
  protein stability index: 3.25 ± 0.13

## GALKGASDGGLYVPHSE [RPL5]
doa10∆
  protein stability index: 1.91 ± 0.083
pdr5∆
  protein stability index: 1.88 ± 0.073
san1∆
  protein stability index: 2.83 ± 0.088
ubr1∆
  protein stability index: 2.67 ± 0.052

## SGIRLIEPELFNGYNPE [FAS2]
doa10∆
  protein stability index: 2.81 ± 0.067
pdr5∆
  protein stability index: 2.89 ± 0.074
san1∆
  protein stability index: 2.82 ± 0.073
ubr1∆
  protein stability index: 2.83 ± 0.045

## VNSIALFVGTDRQLHEI [RPN14]
doa10∆
  protein stability index: 2.43 ± 0.079
pdr5∆
  protein stability index: 2.46 ± 0.065
san1∆
  protein stability index: 2.25 ± 0.067
ubr1∆
  protein stability index: 2.67 ± 0.074

## AAKEGLALSSNISRDFQ [COR1]
doa10∆
  protein stability index: 2.71 ± 0.089
pdr5∆
  protein stability index: 3.08 ± 0.071
san1∆
  protein stability index: 3.13 ± 0.079
ubr1∆
  protein stability index: 2.76 ± 0.096

## TKDKAKKIREIYRYDEM [BRR2]
doa10∆
  protein stability index: 2.58 ± 0.14
pdr5∆
  protein stability index: 2.71 ± 0.1
san1∆
  protein stability index: 2.46 ± 0.14
ubr1∆
  protein stability index: 2.89 ± 0.059

## LDTYLPEDLNSLYIYYL [SIR2]
doa10∆
  protein stability index: 2.8 ± 0.068
pdr5∆
  protein stability index: 2.45 ± 0.054
san1∆
  protein stability index: 2.54 ± 0.053
ubr1∆
  protein stability index: 2.63 ± 0.063

## NIAFDAHMSIGCLHKGK [YML031W/NDC1]
doa10∆
  protein stability index: 3.07 ± 0.15
pdr5∆
  protein stability index: 2.7 ± 0.089
san1∆
  protein stability index: 1.55 ± 0.15
ubr1∆
  protein stability index: 2.27 ± 0.086

## PLSRINENENFGYDIPL [YML103C/NUP188]
doa10∆
  protein stability index: 3.02 ± 0.12
pdr5∆
  protein stability index: 3.14 ± 0.095
san1∆
  protein stability index: 3.15 ± 0.064
ubr1∆
  protein stability index: 3.08 ± 0.077

## NGGKFSKSNLIHNYDSK [RGR1]
doa10∆
  protein stability index: 2.4 ± 0.058
pdr5∆
  protein stability index: 2.71 ± 0.06
san1∆
  protein stability index: 3.11 ± 0.047
ubr1∆
  protein stability index: 2.7 ± 0.064

## EATAASHERFFLSQGLH [CSN12]
doa10∆
  protein stability index: 1.43 ± 0.16
pdr5∆
  protein stability index: 1.28 ± 0.1
san1∆
  protein stability index: 1.09 ± 0.24
ubr1∆
  protein stability index: 1.35 ± 0.18

## MKYAVSKTSENKVSNTV [SIR2]
doa10∆
  protein stability index: 2.99 ± 0.13
pdr5∆
  protein stability index: 3.16 ± 0.062
san1∆
  protein stability index: 3.15 ± 0.091
ubr1∆
  protein stability index: 2.98 ± 0.052

## DEEELGQRTAYHSKRDA [RPB2]
doa10∆
  protein stability index: 3.4 ± 0.1
pdr5∆
  protein stability index: 2.9 ± 0.14
san1∆
  protein stability index: 3.31 ± 0.09
ubr1∆
  protein stability index: 3.04 ± 0.098

## VANYSAMANAPGNNIPY [GAL11]
doa10∆
  protein stability index: 2.88 ± 0.16
pdr5∆
  protein stability index: 3.25 ± 0.18
san1∆
  protein stability index: 2.7 ± 0.17
ubr1∆
  protein stability index: 2.76 ± 0.16

## SSKAATPDTKNFFHAKK [SNF12]
doa10∆
  protein stability index: 3.12 ± 0.058
pdr5∆
  protein stability index: 2.96 ± 0.051
san1∆
  protein stability index: 2.99 ± 0.048
ubr1∆
  protein stability index: 2.93 ± 0.047

## NEKLADLGLEKEFQSVD [RPC53]
san1∆
  protein stability index: 2 ± 0.17

## IPGEYITYALSGYVRSR [RPS21B]
doa10∆
  protein stability index: 2.42 ± 0.059
pdr5∆
  protein stability index: 2.73 ± 0.095
san1∆
  protein stability index: 2.39 ± 0.093
ubr1∆
  protein stability index: 2.77 ± 0.047

## IYSPLHSFIKMLQMKGK [SIR2]
doa10∆
  protein stability index: 2.1 ± 0.064
pdr5∆
  protein stability index: 1.79 ± 0.058
san1∆
  protein stability index: 1.91 ± 0.14
ubr1∆
  protein stability index: 1.88 ± 0.051

## VPKEGLFYFDSSFRPCP [BRR2]
doa10∆
  protein stability index: 3.17 ± 0.068
pdr5∆
  protein stability index: 3.28 ± 0.058
san1∆
  protein stability index: 3.38 ± 0.046
ubr1∆
  protein stability index: 3.14 ± 0.039

## SAMPAPYMPYYYYYHPM [DSN1]
doa10∆
  protein stability index: 2.4 ± 0.058
pdr5∆
  protein stability index: 2.87 ± 0.056
san1∆
  protein stability index: 2.74 ± 0.049
ubr1∆
  protein stability index: 2.84 ± 0.042

## YIESKFCPGEIVGKSNV [YMR129W/POM152]
doa10∆
  protein stability index: 2.86 ± 0.1
pdr5∆
  protein stability index: 2.92 ± 0.1
ubr1∆
  protein stability index: 2.65 ± 0.07

## IQLNGGSISEKVDWARE [RPL3]
doa10∆
  protein stability index: 2.66 ± 0.29
pdr5∆
  protein stability index: 2.96 ± 0.12
san1∆
  protein stability index: 2.88 ± 0.12

## LKRISDGLSFGKGESVI [SIR3]
doa10∆
  protein stability index: 3.21 ± 0.28
san1∆
  protein stability index: 3.33 ± 0.099
ubr1∆
  protein stability index: 3.76 ± 0.19

## FKPSQEPEFHALSQSSL [RRI1]
doa10∆
  protein stability index: 2.61 ± 0.05
pdr5∆
  protein stability index: 2.83 ± 0.043
san1∆
  protein stability index: 2.8 ± 0.042
ubr1∆
  protein stability index: 2.42 ± 0.04

## SVPLRKGDRALLVKLSK [BRR2]
doa10∆
  protein stability index: 2.46 ± 0.17
pdr5∆
  protein stability index: 3.33 ± 0.18
san1∆
  protein stability index: 3.06 ± 0.094
ubr1∆
  protein stability index: 2.99 ± 0.15

## MVEGDSYVETLDSMIEL [MED1]
doa10∆
  protein stability index: 3.25 ± 0.084
pdr5∆
  protein stability index: 3.24 ± 0.1
san1∆
  protein stability index: 3.33 ± 0.051
ubr1∆
  protein stability index: 3.19 ± 0.053

## EEISFSLSEGCDILVAT [PRP28]
doa10∆
  protein stability index: 2.62 ± 0.1
pdr5∆
  protein stability index: 2.69 ± 0.06
san1∆
  protein stability index: 2.72 ± 0.071
ubr1∆
  protein stability index: 2.96 ± 0.058

## GCKNGSFTLLNQLSQTN [NUT1]
doa10∆
  protein stability index: 2.86 ± 0.12
pdr5∆
  protein stability index: 3.05 ± 0.079
san1∆
  protein stability index: 2.97 ± 0.095
ubr1∆
  protein stability index: 3.22 ± 0.11

## ASHNVRRIPKRMRNRAL [POP1]
doa10∆
  protein stability index: 2.11 ± 0.16
pdr5∆
  protein stability index: 2.34 ± 0.058
ubr1∆
  protein stability index: 2.07 ± 0.25

## SCSFFAKLSDTLIIDQV [NUT1]
doa10∆
  protein stability index: 2.22 ± 0.052
pdr5∆
  protein stability index: 1.79 ± 0.051
san1∆
  protein stability index: 2.06 ± 0.11
ubr1∆
  protein stability index: 1.91 ± 0.039

## PQEETITFLIEKAKEMI [ECM29]
doa10∆
  protein stability index: 3.03 ± 0.092
pdr5∆
  protein stability index: 3.18 ± 0.13
san1∆
  protein stability index: 2.95 ± 0.069
ubr1∆
  protein stability index: 3.16 ± 0.075

## DRRAQRVAEKRDALLKE [RPL19A]
doa10∆
  protein stability index: 3.19 ± 0.12
pdr5∆
  protein stability index: 3.25 ± 0.097
san1∆
  protein stability index: 3.07 ± 0.15
ubr1∆
  protein stability index: 3.44 ± 0.067

## EPNLAAQQDSTNVRLYS [ECM29]
doa10∆
  protein stability index: 2.88 ± 0.11
pdr5∆
  protein stability index: 2.9 ± 0.063
san1∆
  protein stability index: 2.81 ± 0.089
ubr1∆
  protein stability index: 2.37 ± 0.074

## IGLDTQQVEGKLSQMIL [RPN6]
doa10∆
  protein stability index: 2.95 ± 0.066
pdr5∆
  protein stability index: 3.05 ± 0.069
san1∆
  protein stability index: 3.04 ± 0.071
ubr1∆
  protein stability index: 3.06 ± 0.056

## EAKERYTDRDQDEVNKG [NNF1]
doa10∆
  protein stability index: 3.26 ± 0.15
pdr5∆
  protein stability index: 3.28 ± 0.13
san1∆
  protein stability index: 3.3 ± 0.22
ubr1∆
  protein stability index: 3.74 ± 0.11

## ENSIGYNNRKCWPKDSR [PRP8]
doa10∆
  protein stability index: 3.08 ± 0.16
pdr5∆
  protein stability index: 2.95 ± 0.18
ubr1∆
  protein stability index: 2.87 ± 0.29

## ILLYGPPGTGKTLCARA [RPT1]
doa10∆
  protein stability index: 1.26 ± 0.1
pdr5∆
  protein stability index: 1.23 ± 0.18
san1∆
  protein stability index: 1.36 ± 0.19
ubr1∆
  protein stability index: 1.28 ± 0.12

## FAVALKNEPDYSKAKYP [CDC53]
doa10∆
  protein stability index: 2.88 ± 0.078
pdr5∆
  protein stability index: 2.46 ± 0.081
san1∆
  protein stability index: 2.37 ± 0.098
ubr1∆
  protein stability index: 2.34 ± 0.092

## ELSDSDRQIINEKMQLL [SIR4]
doa10∆
  protein stability index: 2.76 ± 0.049
pdr5∆
  protein stability index: 2.8 ± 0.055
san1∆
  protein stability index: 2.56 ± 0.06
ubr1∆
  protein stability index: 2.32 ± 0.047

## ENLMVQRTCLMTVTFLI [YCS4]
doa10∆
  protein stability index: 2.09 ± 0.053
pdr5∆
  protein stability index: 1.97 ± 0.045
san1∆
  protein stability index: 2.16 ± 0.07
ubr1∆
  protein stability index: 2.04 ± 0.038

## RSMDAEQLGHASKRHKP [RPP1]
doa10∆
  protein stability index: 2.55 ± 0.056
pdr5∆
  protein stability index: 2.87 ± 0.053
san1∆
  protein stability index: 2.73 ± 0.054
ubr1∆
  protein stability index: 2.74 ± 0.046

## IRGAVGNSEAIPGLSAG [RTT102]
doa10∆
  protein stability index: 3.23 ± 0.057
pdr5∆
  protein stability index: 3.36 ± 0.068
san1∆
  protein stability index: 3.26 ± 0.088
ubr1∆
  protein stability index: 3.43 ± 0.053

## CRDSDDHKRFIVFHNEF [DIS3]
doa10∆
  protein stability index: 3.02 ± 0.1
pdr5∆
  protein stability index: 3.26 ± 0.084
san1∆
  protein stability index: 2.33 ± 0.2
ubr1∆
  protein stability index: 3.23 ± 0.065

## LPQFRSSIQESLLSLVG [ECM29]
doa10∆
  protein stability index: 1.87 ± 0.067
pdr5∆
  protein stability index: 2.04 ± 0.048
san1∆
  protein stability index: 1.7 ± 0.1
ubr1∆
  protein stability index: 1.65 ± 0.054

## KRKCGHTNQLRPKKKLK [RPL40A]
doa10∆
  protein stability index: 2.76 ± 0.038
pdr5∆
  protein stability index: 2.84 ± 0.036
san1∆
  protein stability index: 2.942 ± 0.028
ubr1∆
  protein stability index: 2.994 ± 0.029

## AFNFSFNTSRNVEPTEN [YAR002W/NUP60]
doa10∆
  protein stability index: 3.3 ± 0.052
pdr5∆
  protein stability index: 3.3 ± 0.079
san1∆
  protein stability index: 3.41 ± 0.064
ubr1∆
  protein stability index: 3.04 ± 0.051

## MSGGKGGKAGSAAKASQ [HTA1]
doa10∆
  protein stability index: 3.18 ± 0.1
pdr5∆
  protein stability index: 3.13 ± 0.1
san1∆
  protein stability index: 2.83 ± 0.1
ubr1∆
  protein stability index: 3.24 ± 0.07

## KKVTAFVPNDGCLNFVD [RPS23A]
doa10∆
  protein stability index: 2.88 ± 0.054
pdr5∆
  protein stability index: 3.17 ± 0.046
san1∆
  protein stability index: 3.11 ± 0.032
ubr1∆
  protein stability index: 2.85 ± 0.035

## QHEQGTFEKHDRVEDIC [RRI2]
doa10∆
  protein stability index: 2.89 ± 0.091
ubr1∆
  protein stability index: 2.97 ± 0.13

## QNYRLDGRSFDQFRDVE [RRP45]
doa10∆
  protein stability index: 3.42 ± 0.15
pdr5∆
  protein stability index: 3.26 ± 0.16
san1∆
  protein stability index: 3.34 ± 0.13
ubr1∆
  protein stability index: 3.32 ± 0.092

## LNVPVFQIVIEPLAIAL [ARP7]
doa10∆
  protein stability index: 1.65 ± 0.052
pdr5∆
  protein stability index: 1.66 ± 0.055
san1∆
  protein stability index: 1.48 ± 0.078
ubr1∆
  protein stability index: 1.25 ± 0.045
